Tests used:
[1] = biological target: equine follicle-stimulating hormone receptor A306T (equine) (UniProt P47799)
[2] = biological target: equine follicle-stimulating hormone receptor D566G (equine) (UniProt P47799)
[3] = biological target: wild-type equine follicle-stimulating hormone receptor (equine) (UniProt P47799)
[4] = biological target: equine follicle-stimulating hormone receptor N191I (equine) (UniProt P47799)
[5] = biological target: equine follicle-stimulating hormone receptor R633H (equine) (UniProt P47799)
equine follicle-stimulating hormone receptor R633H (equine), sequence (P47799 18-694 R633H): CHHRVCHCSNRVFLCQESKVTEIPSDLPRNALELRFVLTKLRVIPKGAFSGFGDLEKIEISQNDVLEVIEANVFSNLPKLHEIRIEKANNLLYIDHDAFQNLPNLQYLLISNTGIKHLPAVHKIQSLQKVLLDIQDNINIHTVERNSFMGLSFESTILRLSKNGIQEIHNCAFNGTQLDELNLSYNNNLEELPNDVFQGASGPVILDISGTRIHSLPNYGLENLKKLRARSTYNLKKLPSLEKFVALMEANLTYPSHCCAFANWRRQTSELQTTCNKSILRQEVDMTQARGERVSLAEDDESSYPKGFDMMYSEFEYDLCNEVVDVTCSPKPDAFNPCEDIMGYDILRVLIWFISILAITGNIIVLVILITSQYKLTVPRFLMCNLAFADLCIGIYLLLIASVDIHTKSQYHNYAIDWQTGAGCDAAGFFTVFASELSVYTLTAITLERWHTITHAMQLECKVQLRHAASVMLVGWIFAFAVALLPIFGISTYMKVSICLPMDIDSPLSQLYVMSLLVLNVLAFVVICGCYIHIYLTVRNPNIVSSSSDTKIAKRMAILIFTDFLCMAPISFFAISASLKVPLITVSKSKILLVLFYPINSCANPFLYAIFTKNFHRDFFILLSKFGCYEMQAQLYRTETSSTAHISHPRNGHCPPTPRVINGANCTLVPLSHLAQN

[6] = biological target: wild-type equine follicle-stimulating hormone receptor (equine) (UniProt P47799); remark: listed apart in the source

Human FSH (follicle-stimulating hormone), sequence (P01215 25-116): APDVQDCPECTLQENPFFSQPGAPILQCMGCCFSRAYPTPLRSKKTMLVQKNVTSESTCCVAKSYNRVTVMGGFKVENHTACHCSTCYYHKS
Human FSH (follicle-stimulating hormone), sequence (P01225 19-129): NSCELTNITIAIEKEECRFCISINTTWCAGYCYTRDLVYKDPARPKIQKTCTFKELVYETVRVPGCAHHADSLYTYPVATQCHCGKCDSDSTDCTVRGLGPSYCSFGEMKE
wild-type equine follicle-stimulating hormone receptor (equine), sequence (P47799 18-694): as the sequence (P47799 18-694 R633H) above, with H616R counted along it
equine follicle-stimulating hormone receptor D566G (equine), sequence (P47799 18-694 D566G): as the sequence (P47799 18-694 R633H) above, with D549G, H616R counted along it
equine follicle-stimulating hormone receptor A306T (equine), sequence (P47799 18-694 A306T): as the sequence (P47799 18-694 R633H) above, with A289T, H616R counted along it
equine follicle-stimulating hormone receptor N191I (equine), sequence (P47799 18-694 N191I): as the sequence (P47799 18-694 R633H) above, with N174I, H616R counted along it

Q: With “Human FSH (follicle-stimulating hormone) (from UniProt P01215 25-116; P01225 19-129) (ligand)” as the substance, how does the EC50 of FSH-stimulated cAMP accumulation (HTRF) in transfected PathHunter EA-parental CHO-K1 cells [1] read?
A: The EC50 of FSH-stimulated cAMP accumulation (HTRF) in transfected PathHunter EA-parental CHO-K1 cells was 0.751 µg/mL.

Q: And the EC50 of FSH-stimulated cAMP accumulation (HTRF) in transfected PathHunter EA-parental CHO-K1 cells [2]?
A: Its EC50 of FSH-stimulated cAMP accumulation (HTRF) in transfected PathHunter EA-parental CHO-K1 cells is 0.648 µg/mL.

Q: And the EC50 of FSH-stimulated cAMP accumulation (HTRF) in transfected PathHunter EA-parental CHO-K1 cells [3]?
A: The EC50 of FSH-stimulated cAMP accumulation (HTRF) in transfected PathHunter EA-parental CHO-K1 cells was 0.765 µg/mL.

Q: And the EC50 of FSH-stimulated cAMP accumulation (HTRF) in transfected PathHunter EA-parental CHO-K1 cells [4]?
A: The EC50 of FSH-stimulated cAMP accumulation (HTRF) in transfected PathHunter EA-parental CHO-K1 cells was 3.91 µg/mL.

Q: And the EC50 of FSH-stimulated cAMP accumulation (HTRF) in transfected PathHunter EA-parental CHO-K1 cells [5]?
A: Its EC50 of FSH-stimulated cAMP accumulation (HTRF) in transfected PathHunter EA-parental CHO-K1 cells is 1.16 µg/mL.

Q: What about the EC50 of FSH-stimulated cAMP accumulation (HTRF) in transfected PathHunter EA-parental CHO-K1 cells (series with the inactivating mutants) [6] of the same substance?
A: The EC50 of FSH-stimulated cAMP accumulation (HTRF) in transfected PathHunter EA-parental CHO-K1 cells (series with the inactivating mutants) was 0.718 µg/mL.

From paper PMC8902225
